# Tests used:
# [1] = Determination of catalase activity (decomposition of H2O2 at 240 nm); format: biochemical; settings: after solubilization and release from the polymer capsules; uncoated catalase measured the same way for comparison
# Protocol: The enzyme was released from the polymer capsules by exposure to ultrasound for 5 min at 20° C. in 1 M phosphate buffer at pH 7 (this caused rupturing of the polymer walls). The catalase activity was determined using a standard enzyme activity assay (Biochemica Information, 15-16 Boehringer Mannheim (1987); Tijsen, Practice and Theory of Enzyme Immunoassays, 8th Impression (1993), Elsevier, 202-203): that is, by measuring the decomposition of the substrate hydrogen peroxide (H2O2) at 240 nm. The concentration of the catalase was determined spectrophotometrically at 280 nm and 405 nm (soret band). The specific acitvity of the uncoated catalase was measured in the same way and used for comparison.
# [2] = system: protease (Streptomyces griseus); experiment: Proteolysis experiment (decrease in catalase enzyme activity on protease incubation); format: biochemical; settings: incubation time of 100 min, 37° C., pH 7; starting activity normalized to 100%
# Protocol: 10 mg of protease (Streptomyces griseus; Sigma P6911; activity=5.2 U/mg solid) was dissolved in 500 μl of phosphate buffered saline (PBS, pH 7.0)(100 U/ml) and used as the stock solution. 200 μl samples of the polyelectrolyte-coated catalase and solubilized catalase where separately incubated in a water bath at 37° C. with either 30 μl of the stock protease solution of 30 μl of PBS (control experiment). The starting activity of the catalase for all samples was approximately 12000 U/ml catalase. The starting activities were normalized to 100%. The final protease activity in the sample was […]. Proteolysis of the catalase was determined by measuring the decrease in the catalase enzyme activity. The catalase activity measurements where carried out according to the previously described method (i.e. by spectrophotometric detection (240 nm) of the decomposition of hydrogen peroxide, see Tijsen, Practice and Theory of Enzyme Immunoassays, Elsevier, 8th Impression (1993), pp. 202-203.15). 5 μl samples were diluted and used for the activity measurements.
# [3] = Electrophoretic mobility / Zeta-potential measurement; format: physicochemical; settings: water at pH 5; by electrophoretic mobility
# Protocol: Electrophoretic mobilities of the uncoated and polymer-multilayer coated enzyme crystals were measured using a Malvern Zetasizer 4 as described elsewhere (Caruso et al., J. Phys. Chem. B 102, 2011-2116 (1998); Sukhorukov, G. B. et al., Polym. Adv. Technol. 9, 759-767 (1998); Donath et al., Angew. Chem. Int. Ed. 37, 2201-2205 (1998). The mobility u was converted into a ξ-potential using the Smoluchowski relation ξ=uη/ε, where η and ε are the viscosity and permittivity of the solution, respectively. Atomic force microscopy (AFM) images were obtained using a Digital Instruments Nanoscope IIIa AFM in tapping mode (TM) on samples deposited onto cleaned glass slides and air-dried. Samples for transmission electron microscopy (TEM) were prepared by deposition of aqueous solutions of the hollow polymer capsules upon a carbon-coated copper grid, allowing them to air dry for one minute, and then blotting off the extra solution.
molecule,measurement,setting,value
"catalase (protein, UniProt P00432 2-527, looked up, crystals, catalase enzyme crystals (Sigma, C-100), uncoated template and comparison) Catalase: ADNRDPASDQMKHWKEQRAAQKPDVLTTGGGNPVGDKLNSLTVGPRGPLLVQDVVFTDEMAHFDRERIPERVVHAKGAGAFGYFEVTHDITRYSKAKVFEHIGKRTPIAVRFSTVAGESGSADTVRDPRGFAVKFYTEDGNWDLVGNNTPIFFIRDALLFPSFIHSQKRNPQTHLKDPDMVWDFWSLRPESLHQVSFLFSDRGIPDGHRHMNGYGSHTFKLVNANGEAVYCKFHYKTDQGIKNLSVEDAARLAHEDPDYGLRDLFNAIATGNYPSWTLYIQVMTFSEAEIFPFNPFDLTKVWPHGDYPLIPVGKLVLNRNPVNYFAEVEQLAFDPSNMPPGIEPSPDKMLQGRLFAYPDTHRHRLGPNYLQIPVNCPYRARVANYQRDGPMCMMDNQGGAPNYYPNSFSAPEHQPSALEHRTHFSGDVQRFNSANDDNVTQVRTFYLKVLNEEQRKRLCENIAGHLKDAQLFIQKKAVKNFSDVHPEYGSRIQALLDKYNEEKPKNAVHTYVQHGSHLSAREKANL",recovered specific activity,[1],100%
same,inactivation by protease,[2],> 90%
same,Zeta potential (surface charge),[3],+20 mV

# From patent publication US6833192B1, “Encapsulation of crystals via multilayer coatings” (Max-Planck Gesellschaft Zur Forderrung der Wissenschaften …, priority 1999, dated 2004)
